According to US20230295310A1 (ABCELLERA BIOLOGICS, published 2023):
Positions count from the first letter of the chain named.

B1: GOMP001_bsAb_045 (bispecific antibody, human IgG1, kappa, L234A L235A)
heavy 1: QVQLVQSGAEVKKPGASVKVSCKASGYTFTSHWMHWVRKAPGQGLEWIGEFNPSNGRTNYNEEFKSKATMTVDTSTNTAYMELSSLRSEDTAVYYCASRDYDYDGRYFDYWGQGTLVTVSSASTKGPSVFPLAPSSKSTSGGTAALGCLVADYFPEPVTVSWNSGALTSGVHTFPAVLQSSGLYSLSSVVTVPSSSLGTQTYICNVNHKPSNTKVDEKVEPKSCDKTHTCPPCPAPEAAGGPSVFLFPPKPKDTLMISRTPEVTCVVVDVSHEDPEVKFNWYVDGVEVHNAKTKPREEQYNSTYRVVSVLTVLHQDWLNGKEYKCKVSNKALPAPIEKTISKAKGQPREPQVYTLPPSREEMTDNQVSLTCLVKGFYPSDIAVEWESNGQPENNYKTTPPVLMSDGSFFLASKLTVDKSRWQQGNVFSCSVMHEALHNHYTQKSLSLSPG
light 1: RIQMTQSPSSLSASVGDRVTITCSASSSVTYMYWYQDKPGKAPKLLIYDTSNLASGVPSRFSGSGSGTDYTFTISSLQPEDIATYYCQQWSSHIFTFGQGTKVEIKRTVAAPSVFIFPPSDKQLKSGTARVVCLLNNFYPREAKVQWKVDNALQSGNSQESVTEQDSKDSTYSLSSTLTLSKADYEKHKVYACEVTHQGLSSPVTKSFNRGEC
heavy 2: B1 heavy 1
light 2: not shown
B2: GOMP001_bsAb_056 (bispecific antibody, human IgG1, kappa, L234A L235A)
heavy 1: EVNLVESGGGLVQPGRSLRLSCAASGFTFDDYTMHWVRYVPGKGLEWVSNISWNSGSLGYADRVKGRFTISRDNAKDSLYLQMNSLRVEDTALYYCAKDSSGYGHYNSYYMDVWGRGTTVTVSSASTKGPSVFPLAPSSKSTSGGTAALGCLVKDYFPEPVTVSWNSGALTSGVHTFPAVLQSSGLYSLSSVVTVPSSSLGTQTYICNVNHKPSNTKVDKKVEPKSCDKTHTCPPCPAPEAAGGPSVFLFPPKPKDTLMISRTPEVTCVVVDVSHEDPEVKFNWYVDGVEVHNAKTKPREEQYNSTYRVVSVLTVLHQDWLNGKEYKCKVSNKALPAPIEKTISKAKGQPRRPRVYTLPPSREEMTKNQVSLVCLVKGFYPSDIAVEWESNGQPENNYKTTPPVLDSDGSFFLYSVLTVDKSRWQQGNVFSCSVMHEALHNHYTQKSLSLSPG
light 1: DIQMTQSPSSLSASVGDRVTITCRASQSIRNYLNWYQRKPGDAPKVLIYSASSLQSGVPSRFSGSGSGTDFTLTISSLQPEDFASFYCQQTYSTPITFGQGTRLEIKRTVAAPSVFIFPPSDEQLKSGTASVVCLLNNFYPREAKVQWKVDNALQSGNSQESVTEQDSKDSTYSLSSTLTLSKADYEKHKVYACEVTHQGLSSPVTKSFNRGEC
heavy 2: QVQLVQSGAEVKKPGASVKVSCKASGYTFTSHWMHWVRYAPGQGLEWIGEFNPSNGRTNYNEKFKSKATMTVDTSTNTAYMELSSLRSEDTAVYYCASRDYDYDGRYFDYWGRGTLVTVSSASTKGPSVFPLAPSSKSTSGGTAALGCLVKDYFPEPVTVSWNSGALTSGVHTFPAVLQSSGLYSLSSVVTVPSSSLGTQTYICNVNHKPSNTKVDKKVEPKSCDKTHTCPPCPAPEAAGGPSVFLFPPKPKDTLMISRTPEVTCVVVDVSHEDPEVKFNWYVDGVEVHNAKTKPREEQYNSTYRVVSVLTVLHQDWLNGKEYKCKVSNKALPAPIEKTISKAKGQPRRPRVYTLPPSREEMTKNQVSLVCLVKGFYPSDIAVEWESNGQPENNYKTTPPVLDSDGSFFLYSVLTVDKSRWQQGNVFSCSVMHEALHNHYTQKSLSLSPG
light 2: B1 light 1 with R1D, D37R, K41D, K122E, R130S
B3: GOMP001_bsAb_050 (bispecific antibody, human IgG1, kappa, L234A L235A)
heavy 1: QVQLVESGGGVVQPGRSLRLSCAASGFTFSTYGMHWVRYAPGKGLEWVAVIWYDGSHKYYADRVKGRFTISRDNSKKTLYLQMNSLRAEDTGIYYCARTGISGNMSYFYFDHWGRGILVTVSSASTKGPSVFPLAPSSKSTSGGTAALGCLVKDYFPEPVTVSWNSGALTSGVHTFPAVLQSSGLYSLSSVVTVPSSSLGTQTYICNVNHKPSNTKVDKKVEPKSCDKTHTCPPCPAPEAAGGPSVFLFPPKPKDTLMISRTPEVTCVVVDVSHEDPEVKFNWYVDGVEVHNAKTKPREEQYNSTYRVVSVLTVLHQDWLNGKEYKCKVSNKALPAPIEKTISKAKGQPRRPRVYTLPPSREEMTKNQVSLVCLVKGFYPSDIAVEWESNGQPENNYKTTPPVLDSDGSFFLYSVLTVDKSRWQQGNVFSCSVMHEALHNHYTQKSLSLSPG
light 1: not shown
heavy 2: B2 heavy 2
light 2: B1 light 1 with R1D, D37R, K41D, K122E, R130S
B4: GOMP001_bsAb_055 (bispecific antibody, human IgG1, kappa, L234A L235A)
heavy 1: B1 heavy 1
light 1: B1 light 1
heavy 2: B2 heavy 1
light 2: B2 light 1
B5: GOMP001_bsAb_046 (bispecific antibody, human IgG1, kappa, L234A L235A)
heavy 1: B1 heavy 1
light 1: not shown
heavy 2: B2 heavy 2
light 2: B1 light 1 with R1D, D37R, K41D, K122E, R130S
B6: GOMP001_bsAb_051 (bispecific antibody, human IgG1, kappa, L234A L235A)
heavy 1: B1 heavy 1
light 1: B1 light 1
heavy 2: LRSDDTAVYYCARGVRGNYYYYYMDVWGRGTTVTVSSASTKGPSVFPLAPSSKSTSGGTAALGCLVKDYFPEPVTVSWNSGALTSGVHTFPAVLQSSGLYSLSSVVTVPSSSLGTQTYICNVNHKPSNTKVDKKVEPKSCDKTHTCPPCPAPEAAGGPSVFLFPPKPKDTLMISRTPEVTCVVVDVSHEDPEVKFNWYVDGVEVHNAKTKPREEQYNSTYRVVSVLTVLHQDWLNGKEYKCKVSNKALPAPIEKTISKAKGQPRRPRVYTLPPSREEMTKNQVSLVCLVKGFYPSDIAVEWESNGQPENNYKTTPPVLDSDGSFFLYSVLTVDKSRWQQGNVFSCSVMHEALHNHYTQKSLSLSPG
light 2: EIVLTQSPDFQSVTPKEKVTITCRASQSIGSKLHWYQRKPDDSPKLLIKYASQSFSGVPSRFSGSGSGTDFNLTINSLEAEDAATFYCHQSSGLPYTFGQGTKLEIKRTVAAPSVFIFPPSDEQLKSGTASVVCLLNNFYPREAKVQWKVDNALQSGNSQESVTEQDSKDSTYSLSSTLTLSKADYEKHKVYACEVTHQGLSSPVTKSFNRGEC
B7: GOMP001_bsAb_049 (bispecific antibody, human IgG1, kappa, L234A L235A)
heavy 1: B1 heavy 1
light 1: B1 light 1
heavy 2: B3 heavy 1
light 2: not shown

These binders were tested against human EGFR, C-terminal eGFP-tagged, on CHO-K1 cells (human, UniProt P00533 25-1210) (assay: cell-based or functional assay).

EC50 CHO-K1 EGFR Low (nM); T cell activation bioassay, luciferase [nM] | EC50 CHO-K1 EGFR Med (nM); T cell activation bioassay, luciferase [nM] | Binder
0.071 | 0.00792 | B1
0.0291 | 0.00412 | B2
1.67 | 0.0606 | B3
0.119 | 0.0139 | B4
0.02 | 0.00409 | B5
1.23 | 0.0922 | B6
– | 0.138 | B7
